From patent US5965443

Columns and labels:
[1] = molecular target: Tn5 transposase EK54 (with MA56, pRZ5412-EK54) P372L (Escherichia coli (transposon Tn5)?) (UniProt Q46731); test: cell_activity; conditions: mutant at position 54 alone; MA56 background inferred
[2] = molecular target: Tn5 transposase EK54/MA56/LP372 (in-cell assay) (Escherichia coli (transposon Tn5)?) (UniProt Q46731); test: cell_activity; conditions: at least about 100-fold transposase activity; assay substrate not detailed for this test
[3] = molecular target: Tn5 transposase LP372 K54E (Escherichia coli (transposon Tn5)?) (UniProt Q46731); test: cell_activity; conditions: mutant at position 372 alone; MA56 background inferred
[4] = molecular target: T1, Tn5 transposase EK54/MA56/LP372 (modified, hyperactive) (Escherichia coli (transposon Tn5)?) (UniProt Q46731); conditions: in vitro transposition; 0.1 M K glutamate, 25 mM Tris acetate pH 7.5, 10 mM Mg acetate, 20 C 60 min then 37 C 2-3 h; underestimates total events; scale: % of plasmid-receiving cells
T1 sequence: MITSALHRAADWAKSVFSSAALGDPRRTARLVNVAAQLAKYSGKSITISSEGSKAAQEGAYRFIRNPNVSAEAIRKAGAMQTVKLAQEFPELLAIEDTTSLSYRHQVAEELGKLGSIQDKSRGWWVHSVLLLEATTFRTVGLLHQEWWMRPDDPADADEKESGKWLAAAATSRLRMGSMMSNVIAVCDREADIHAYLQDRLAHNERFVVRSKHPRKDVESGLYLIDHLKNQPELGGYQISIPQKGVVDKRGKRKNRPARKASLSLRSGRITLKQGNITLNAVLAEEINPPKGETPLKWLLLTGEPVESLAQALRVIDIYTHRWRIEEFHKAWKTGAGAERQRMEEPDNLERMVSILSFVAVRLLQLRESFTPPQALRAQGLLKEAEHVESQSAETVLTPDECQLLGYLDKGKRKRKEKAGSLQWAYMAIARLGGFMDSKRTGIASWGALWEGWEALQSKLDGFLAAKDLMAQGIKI

Substance	transposase activity (fold activity vs wild type) [1]	transposase activity (fold activity vs wild type) [2]	transposase activity (fold activity vs wild type) [3]	activity [4]
lacZ-containing Tn5 transposable element in E. coli MDW320	10	> 100	10	–
pRZTL1 circular plasmid (two inverted Tn5 19 bp OE termini)	–	–	–	0.1
